The results in this text go back to patent US6884600.

In series [1] the target is catalytic subunit of protein phosphatase-1, γ1-isoform (PP1γ1), produced in Escherichia coli (UniProt P36873). Briefly: co-crystal structure at 3.0 Å, method of Lee and Richards.
In series [2] the target is T1, GST-M110-(M1-E309), GST tag not cleaved.
T1 chain: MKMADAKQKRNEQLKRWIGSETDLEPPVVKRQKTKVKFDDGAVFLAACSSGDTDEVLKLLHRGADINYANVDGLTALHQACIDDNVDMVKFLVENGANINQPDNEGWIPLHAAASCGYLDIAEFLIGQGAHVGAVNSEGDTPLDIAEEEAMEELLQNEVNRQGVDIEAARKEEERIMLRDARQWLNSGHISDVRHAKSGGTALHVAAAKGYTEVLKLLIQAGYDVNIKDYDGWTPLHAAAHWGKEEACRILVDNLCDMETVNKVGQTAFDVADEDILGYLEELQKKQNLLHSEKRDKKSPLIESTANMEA

Chain of catalytic subunit of protein phosphatase-1, γ1-isoform (PP1γ1), produced in Escherichia coli (P36873 whole entry, canonical isoform): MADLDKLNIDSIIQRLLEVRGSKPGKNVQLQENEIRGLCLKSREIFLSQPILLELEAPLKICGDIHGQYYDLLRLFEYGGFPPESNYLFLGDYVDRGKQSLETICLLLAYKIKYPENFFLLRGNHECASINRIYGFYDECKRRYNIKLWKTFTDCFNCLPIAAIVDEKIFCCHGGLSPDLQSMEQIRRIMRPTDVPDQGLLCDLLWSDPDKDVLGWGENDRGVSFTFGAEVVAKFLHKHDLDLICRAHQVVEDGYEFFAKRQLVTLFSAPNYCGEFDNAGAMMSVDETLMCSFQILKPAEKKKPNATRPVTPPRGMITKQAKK

B1: GM-(G63-N75) synthetic peptide (peptide)
peptide: GRRVSFADNFGFN
B1 displayed a total solvent accessible surface area buried on formation of the complex in series [1] of 980 Å2.

B2: β isoform of PP1c released from rabbit skeletal muscle PP1G (protein)
chain: ADGELNVDSLITRLLEVRGCRPGKIVQMTEAEVRGLCIKSREIFLSQPILLELEAPLKICGDIHGQYTDLLRLFEYGGFPPEANYLFLGDYVDRGKQSLETICLLLAYKIKYPENFFLLRGNHECASINRIYGFYDECKRRFNIKLWKTFTDCFNCLPIAAIVDEKIFCCHGGLSPDLQSMEQIRRIMRPTDVPDTGLLCDLLWSDPDKDVQGWGENDRGVSFTFGADVVSKFLNRHDLDLICRAHQVVEDGYEFFAKRQLVTLFSAPNYCGEFDNAGGMMSVDETLMCSFQILKPSEKKAKYQYGGLNSGRPVTPPRTANPPKKR
On to B2, for which the “concentration needed to modulate the substrate specificity of PP1c, relative to the cleaved fragment” value in series [2] was “If the GST tags were not cleaved with thrombin, a 10-fold higher concentration of M110-(M1-E309) was needed to modulate the substrate specificity of PP1c”.
